Assay results as given in the supplement of paper PMC12764529.
± gives the half width of the 95% confidence interval.

Columns and labels:
[1] = folding stability dG unfold from trypsin proteolysis; higher = more stable
Procedure, shortened: (§1)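 Designed mini-proteins with no cysteine and under 80 residues were kept only if AlphaFold2 dimer inter-PAE was above 15. In a PA-tagged cDNA display construct, they were digested with trypsin and chymotrypsin and then sequenced. K50 was inferred by Bayesian fitting of counts, and unfolding free energy was derived per protease or combined against a sequence-predicted unfolded-state K50 and a shared folded-state K50.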

[2] = folding stability dG unfold from chymotrypsin proteolysis; higher = more stable
Procedure, shortened: as §1

[3] = folding stability dG unfold (combined trypsin and chymotrypsin); higher = more stable
Procedure, shortened: as §1

Sequence | folding stability dG unfold [1] [kcal/mol] | folding stability dG unfold [2] [kcal/mol] | folding stability dG unfold [3] [kcal/mol]
SAGGSAGGSAGSKTPSVLVIEVDANTSIEKILELYKKNYPVGEIRVFTRPDGRKIAVITGSAGGSAGGSAGG [r11_97_TrMRF] | 2.22 ± 0.028 | 2.33 ± 0.069 | 2.31 ± 0.12
SAGGSAGGSAGSMFMIMIEYDPPGYIKVSINRYKMGPDGDFEPVEPETHEIPIPPGQPFFSAGGSAGGSAGG [r11_440_TrROS] | 1.91 ± 0.14 | 2.36 ± 0.13 | 2.3 ± 0.17
SAGGSAGGSAGSMLTTTLPNGTPVTREFDIQDVEPKGDVIKVVITNPTGGEVPASTVIGPVNSAGGSAGGSA [r18_163_JUSTAS] | 0.412 ± 0.051 | 0.757 ± 0.03 | 0.657 ± 0.081
SAGGSAGGSAGSMSLPVTELVVESVDPLEGVLVVKVKGTLPDGSEVELTLEFKPDEPLELSAGGSAGGSAGG [r11_211_JUSTAS] | 0.992 ± 0.043 | 0.375 ± 0.066 | 0.71 ± 0.11
SAGGSAGGSAGSMTVTVTGGGVSVEVYPETGLVRVRSPSGSETLVDIATGEVVRREPAAASAGGSAGGSAGG [r11_149_JUSTAS] | 0.631 ± 0.047 | 0.872 ± 0.029 | 0.781 ± 0.066
SAGGSAGGSAGSNKVVTFVPRDPATGAPLGERPIPINSSSGSEIESIKKELPPEVVEIVESAGGSAGGSAGG [r17_339_JUSTAS] | 0.605 ± 0.044 | 1.15 ± 0.02 | 1.01 ± 0.066
SAGGSAGGSAGSSILSVVEEDPETGLRVVLSPVSDVPVRIVTKRIPEKEEIKVLEVERLPSAGGSAGGSAGG [r11_1066_JUSTAS] | -0.603 ± 0.38 | -0.758 ± 0.37 | -0.746 ± 0.43
SAGGSAGGSAGSSMTTVTVTITDTGSGKTTTTELDVPVSEVQAVIDELSPSPTLTITVVQSAGGSAGGSAGG [r17_50_JUSTAS] | 1.84 ± 0.049 | 1.51 ± 0.028 | 1.64 ± 0.043
SAGGSAGGSAGSSSISRETFDPETGLRYVYDPETDTITVIDLSNNKVVKTTPVGPEELERSAGGSAGGSAGG [r17_271_JUSTAS] | 0.244 ± 0.068 | 1.95 ± 0.022 | 1.55 ± 0.07
SAGGSAGGSAGSVIVTSTTSTLPNGTVVTNETVSDPSNPGVTTKKTSTTYPDGSVTTTESSAGGSAGGSAGG [r11_483_JUSTAS] | 0.213 ± 0.043 | 1.73 ± 0.047 | 1.36 ± 0.057
SAGGSAGGSAGSVTITRDYPTPDGTRTTVTITFPSLERSPSVKYKLVSVSPDGNYVLSPESAGGSAGGSAGG [r11_733_JUSTAS] | 2.11 ± 0.18 | 1.61 ± 0.17 | 1.91 ± 0.28
SAGGSAGGSAGSVTLPKNQVGVSVESYEVTLPDETGESVTRYKITLRFAETGLSAEFYAGSAGGSAGGSAGG [r17_266_TrMRF] | 1.2 ± 0.047 | 1.34 ± 0.25 | 1.26 ± 0.22
SAGGSAGGSAGSWELSYRFPGVQIEVTYSPEWGFITEIKVQPLPPPPPPSPEDAKEMKEKSAGGSAGGSAGG [r11_320_TrROS] | 0.799 ± 0.083 | 2.56 ± 0.081 | 2.02 ± 0.12
SAGGSAGGSAGSYPIEYIPAPPDRLWLIDPKNGKIYEIYLDPERGEYSFEEIKEFPLGLESAGGSAGGSAGG [r11_352_JUSTAS] | 1.34 ± 0.045 | 1.66 ± 0.073 | 1.57 ± 0.1
SAGGSAGGSAGTEIKIPPEFPDLPVKVYPIEVTLLGKGKPKKVILNVATTPDAIIAVDPESAGGSAGGSAGG [r11_21_TrMRF] | -0.478 ± 0.1 | -0.61 ± 0.28 | -0.623 ± 0.2
SAGGSAGGSAGTIVITQSPDGTWRAYYEDGTAEEFDSIDDLKKALEEHYPDAKTVIFKPASAGGSAGGSAGG [r11_806_TrMRF] | 3.33 ± 0.15 | 2.99 ± 0.17 | 3.15 ± 0.17
SAGGSAGGSAGTLTLRVQLFDEDGRLVAEREVELEVELPPPPPVELEFDEETRELRRRRLSAGGSAGGSAGG [r17_348_TrROS_Hall] | 1.12 ± 0.18 | 0.811 ± 0.22 | 0.965 ± 0.24
SAGGSAGGSAGVIPLPGGEEVEYFPEKGEATVRLPDGTVYKVEITKAPDGSLSVTVTPAGSAGGSAGGSAGG [r11_331_JUSTAS] | 1.79 ± 0.052 | 1.1 ± 0.035 | 1.45 ± 0.052
SAGGSAGGSAGVIRVKLKDGPVREIPLEDVPPELLNTPELLAAIEALAREAGYEIESIEASAGGSAGGSAGG [r11_467_TrMRF] | 1.7 ± 0.038 | 2.22 ± 0.029 | 2.03 ± 0.056
SAGGSAGGSAGVITVTKDPKTGKYTVTIETPSGPATTVEVSSEEEAKELAKKLGYDIDALSAGGSAGGSAGG [r11_1049_JUSTAS] | 3.89 ± 0.14 | 3.78 ± 0.087 | 3.82 ± 0.098
SAGGSAGGSAGVIVTPEGDRIVTYDPNTGSVTVTPLDAAGNPLTTTVVAPNGPVVTVTELSAGGSAGGSAGG [r17_385_JUSTAS] | 1.66 ± 0.055 | 0.871 ± 0.018 | 1.22 ± 0.034

Sequence | folding stability dG unfold [1] [kcal/mol] | folding stability dG unfold [2] [kcal/mol] | folding stability dG unfold [3] [kcal/mol]
SAGGSAGGSAGVPDNAKIRLAFEFDGYIVLIEATPGTGFIKNIDKVEVFPVIPNTGEVTGSAGGSAGGSAGG [r11_66_TrMRF] | 1.53 ± 0.07 | 1.85 ± 0.1 | 1.79 ± 0.13
SAGGSAGGSAGVPEGEEYLFTVKVTLTFEPVTVKDENGEEHEIDEVTITVTVTVLVKAEDSAGGSAGGSAGG [r11_907_TrROS_Hall] | 2.33 ± 0.35 | 3.24 ± 0.12 | 2.93 ± 0.24
SAGGSAGGSAGVPSLEEVLAELEANPNSDAVVELPDGTRVRIRVERLPGGELRVEREEVLSAGGSAGGSAGG [r11_300_JUSTAS] | 1.21 ± 0.029 | 1.78 ± 0.049 | 1.6 ± 0.078
SAGGSAGGSAGVRIDKDGWTIKWYNPDGEKRTFTVDSPEEAKDFLEENFPPGWRVEIEPPSAGGSAGGSAGG [r11_983_TrROS] | 1.11 ± 0.046 | 1.38 ± 0.056 | 1.33 ± 0.13
SAGGSAGGSAGVTIPDPGEEELRKALEAGREVRVAFPESGKVVLVEGPGPELGEEPEPAASAGGSAGGSAGG [r11_94_JUSTAS] | -0.619 ± 0.093 | 0.589 ± 0.012 | 0.275 ± 0.075
SAGGSAGGSAGWGLIITIEVEGEYDPANGQWSLNIEIEIQPIRIPPPKEPPPDDNPNNDDSAGGSAGGSAGG [r17_454_TrROS] | 2.27 ± 0.23 | 4.08 ± 0.15 | 3.86 ± 0.32
SAGGSAGGSAGWYFPIDELQKEHPNMSPETIADFFQKDGYKIEVEPVGPEPWVKIEPPEKSAGGSAGGSAGG [r11_707_TrROS] | 0.658 ± 0.07 | -0.513 ± 0.67 | 0.242 ± 0.12
SAGGSAGGSAGYESVVNELKRKGYKVEVKKTPDGTYVVTVTKKDGTVETITLGPEGGKISSAGGSAGGSAGG [r17_503_JUSTAS] | 2.67 ± 0.14 | 4.36 ± 0.12 | 4.16 ± 0.15
SAGGSAGGSAGYIKTEHEVTVMEKDPDGGTKMIEVPVKITIPIIPIPPEALEKNPEALKKFLSAGGSAGGSA [r18_114_TrROS] | 0.461 ± 0.19 | 0.352 ± 0.14 | 0.514 ± 0.22
SAGGSAGGSAGYISIMIFFVLPDGYAIMVKYTFELPPNGNPKIENIEIHVMKLPPGEPIFSAGGSAGGSAGG [r11_517_TrROS] | 4.22 ± 0.3 | 5.35 ± 0.17 | 5.13 ± 0.3
SAGGSAGGSAGYLELKISFFDPDGQILASITIWIEIVIPPPPKMEYERDPEDGNNKWEHDSAGGSAGGSAGG [r17_348_TrROS] | 2.49 ± 0.23 | 2.19 ± 0.056 | 2.26 ± 0.17
SAGGSAGGSAIKPGETIPIKIGNFPIKITVYGDWVEITFPNGRKIRFRVAVDDGKLEIDIYFSAGGSAGGSA [r18_172_TrROS] | 4.07 ± 0.24 | 4.31 ± 0.14 | 4.18 ± 0.14
SAGGSAGGSAIWIPSPEAADEIMDILAKKNGYKINIEPIGQDEDGGMVYEIEIVPPGQPLTSAGGSAGGSAG [r3_59_TrROS] | 0.152 ± 0.066 | 0.397 ± 0.16 | 0.484 ± 0.22
SAGGSAGGSAKAVIFFEGASIEDVVEAVKARPEEEVLVVFPDGRVLLLTKDDVVVVVPAPFSAGGSAGGSAG [r3_269_TrMRF] | 1.19 ± 0.052 | 1.22 ± 0.11 | 1.23 ± 0.093
SAGGSAGGSAKEIKLKITKVTFTENEDGTLTATFELEDGYRVTIKFNKKTNKVEIKIEPLPSAGGSAGGSAG [r3_438_TrROS_Hall] | 2.47 ± 0.091 | 4.12 ± 0.082 | 3.74 ± 0.15
SAGGSAGGSAKEKYILLKVKPGQKVEIEYENGEKKEVEVLEDGYLLIKVKEKNAKIKIKIKSAGGSAGGSAG [r3_334_TrROS_Hall] | 1.85 ± 0.17 | 2.82 ± 0.051 | 2.76 ± 0.32
SAGGSAGGSAKEVIIEIKVPPNMTEDEIKELLKKKFKGKKVEIKIEKKKNKNGTLIYKVEVKSAGGSAGGSA [r18_360_TrROS_Hall] | 2.6 ± 0.15 | 3.13 ± 0.12 | 2.73 ± 0.34
SAGGSAGGSAKIEVEVTPLPGNKVLKIIKFENGEYIIEVFYFDPETGKIYSESEIISEEELLSAGGSAGGSA [r18_325_TrMRF] | 1.3 ± 0.039 | 2.36 ± 0.044 | 2.05 ± 0.13
SAGGSAGGSAKIIIIEEDPEEAIRRVEELFGPGARIEPVRVVRVGDKVYVAVGIDIPASLASAGGSAGGSAG [r3_87_TrMRF] | 1.094 ± 0.0092 | 0.9 ± 0.017 | 0.977 ± 0.044
SAGGSAGGSAKITIELDGITEVEFDEETGELYLRIEVDGKLYEIRITEDGTIEIREVPLEDSAGGSAGGSAG [r3_62_TrROS_Hall] | 1.86 ± 0.097 | 3.63 ± 0.11 | 3.13 ± 0.17
SAGGSAGGSAKITITKEDIVSYDEENKTFTIKLKDGSTIKIRVEKVKDGKIKVYDEDTGKPISAGGSAGGSA [r18_418_TrROS_Hall] | 1.27 ± 0.063 | 1.79 ± 0.048 | 1.65 ± 0.18
